From paper PMC13544220, “Glycemic and bodyweight effects of GIPR coding variation reflect differences in surface expression and intrinsic functional impairment” (Science Advances, 2026)

Assays:
Type in all cases: cell-based, human
[1] = test system: wild-type and variant SNAP-GIPR; test: Single-concentration GIP cAMP response by HTRF in AD293 cells; conditions: Fig S3F, HTRF, mean;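 further: ratio to experiment-wide average response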
Procedure: (§1) All variants were tested in parallel on each occasion to control for transfection efficiency differences between experiments.

[2] = test system: wild-type and variant SNAP-GIPR; test: Constitutive and agonist-mediated internalization, reversible SNAP-tag labelling, AD293 cells; parameters: key to Internalisation, Vehicle / Internalisation, +GIP / Internalisation, GIP-only: % internalization: residual fluorescence after Mesna vs pre-Mesna; Surface expression: unit not given here; conditions: Mean
Outline: (§2)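 Percentage internalization is read as the fraction of specific SNAP fluorescence that survives Mesna stripping, compared with the image taken before Mesna. Wells are imaged in TNE buffer at pH 8.6 and again after 10 min.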

[3] = test system: wild-type and variant SNAP-GIPR; test: Surface SNAP-GIPR expression (SNAP-tag labelling) in AD293 cells; conditions: for AD293 Surface: Fig S3E, mean; for Surface SNAP-GIPR expression: sheet Fig 1C;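 on all read-outs here: scaled to the experimental average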
Outline: (§3)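 Read-out: whole-cell fluorescence of surface-only SNAP label (Alexa Fluor 647, 500 nM, 10 min, RT), wide-field 20X, several FOVs per well. Flat-field corrected, phase-contrast masked, nontransfected-well signal subtracted; normalized to experiment mean or wild-type.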

[4] = test system: wild-type and variant SNAP-GIPR; test: Constitutive and agonist-mediated internalization, reversible SNAP-tag labelling, INS-1 cells; parameters: key to Internalisation, GIP-only / Internalisation, Vehicle / Internalisation, +GIP: % internalization: residual fluorescence after Mesna vs pre-Mesna; conditions: Mean
Outline: as §2

[5] = test system: wild-type and variant SNAP-GIPR; test: Single-concentration GIP cAMP response by HTRF in INS-1 cells; conditions: Fig S3E, mean
Procedure: as §1

[6] = test system: wild-type and variant SNAP-GIPR; test: cADDis cAMP imaging in AD293 cells, ensemble, expression-matched and per decile; conditions: Fig S3F, cADDis, mean;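 further: Ensemble cells as % of IBMX/FSK response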
Outline: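 AD293 cells were transfected with SNAP-GIPR constructs and cotransduced with the cADDis Green Up cAMP sensor, then labeled after 24 h with 500 nM SNAP-Surface Alexa Fluor 647. Per-cell cADDis intensity was tracked at 37°C in KRBH with 6 mM glucose and 0.1% BSA.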

[7] = test system: wild-type and variant SNAP-GIPR; test: Surface SNAP-GIPR expression (SNAP-tag labelling) in INS-1 cells; conditions: Fig 4G; Mean
Outline: as §3

B1: R136W (protein, UniProt P48546 22-466, looked up, variant R136W)
Gastric inhibitory …: RAETGSKGQTAGELYQRWERYRRECQETLAAAEPPSGLACNGSFDMYVCWDYAAPNATARASCPWYLPWHHHVAAGFVLRQCGSDGQWGLWRDHTQCENPEKNEAFLDQRLILEWLQVMYTVGYSLSLATLLLALLILSLFRRLHCTRNYIHINLFTSFMLRAAAILSRDRLLPRPGPYLGDQALALWNQALAACRTAQIVTQYCVGANYTWLLVEGVYLHSLLVLVGGSEEGHFRYYLLLGWGAPALFVIPWVIVRYLYENTQCWERNEVKAIWWIIRTPILMTILINFLIFIRILGILLSKLRTRQMRCRDYRLRLARSTLTLVPLLGVHEVVFAPVTEEQARGALRFAKLGFEIFLSSFQGFLVSVLYCFINKEVQSEIRRGWHHCRLRRSLGEEQRQLPERAFRALPSGSGPGEVPTSRGLSSGTLPGPGNEASRELESYC
AD293 100 pM HTRF ([1]; AD293, 100 pM): 0.0806 | AD293 100 nM HTRF ([1]; AD293, 100 nM): 1.324 | +GIP internalisation (100 nM) ([2]; Fig 4E, GIP 100 nM): 0.7747 | GIP-specific internalisation (100 nM) ([2]; Fig 4E, GIP 100 nM): 0.1529 | Constitutive internalisation (100 nM) ([2]; Fig 4E): 0.6218 | Surface expression ([2]; Fig 4E): 1.49 | Internalisation, +GIP ([2]; Fig S4C, AD293): 52.0458 | Internalisation, GIP-only ([2]; Fig S4C, AD293): 10.2879 | Internalisation, Vehicle ([2]; Fig S4C, AD293): 41.7579 | AD293 Surface ([3]; column repeated, paired with cAMP 100 nM): 1.539 | AD293 Surface ([3]; paired with cAMP 100 pM): 1.539 | Surface SNAP-GIPR expression ([3]; replicate 1): 1.301 | Surface SNAP-GIPR expression ([3]; replicate 2): 1.896 | Surface SNAP-GIPR expression ([3]; replicate 3): 1.558 | Surface SNAP-GIPR expression ([3]; replicate 4): 1.426 | Surface SNAP-GIPR expression ([3]; replicate 5): 1.728 | Surface SNAP-GIPR expression ([3]; replicate 6): 1.162 | Surface SNAP-GIPR expression ([3]; replicate 7): 1.369 | Surface SNAP-GIPR expression ([3]; replicate 8): 1.722 | Surface SNAP-GIPR expression ([3]; replicate 9): 1.795 | Surface SNAP-GIPR expression ([3]; replicate 10): 1.62 | Surface SNAP-GIPR expression ([3]; replicate 11): 1.44 | Surface SNAP-GIPR expression ([3]; replicate 12): 1.625 | Surface SNAP-GIPR expression ([3]; replicate 13): 1.681 | Surface SNAP-GIPR expression ([3]; replicate 14): 1.394 | Surface SNAP-GIPR expression ([3]; replicate 15): 1.54 | Surface SNAP-GIPR expression ([3]; replicate 16): 1.63 | Surface SNAP-GIPR expression ([3]; replicate 17): 1.488 | Surface SNAP-GIPR expression ([3]; replicate 18): 1.722 | Surface SNAP-GIPR expression ([3]; replicate 19): 2.073 | Surface SNAP-GIPR expression ([3]; replicate 20): 1.443 | Surface SNAP-GIPR expression ([3]; replicate 21): 1.607 | Surface SNAP-GIPR expression ([3]; replicate 22): 1.548 | Surface SNAP-GIPR expression ([3]; replicate 23): 1.562 | Surface SNAP-GIPR expression ([3]; replicate 24): 1.636 | Surface SNAP-GIPR expression ([3]; replicate 25): 1.259 | Surface SNAP-GIPR expression ([3]; replicate 26): 1.57 | Surface SNAP-GIPR expression ([3]; replicate 27): 1.295 | Surface SNAP-GIPR expression ([3]; replicate 28): 1.198 | Surface SNAP-GIPR expression ([3]; replicate 29): 1.582 | Surface SNAP-GIPR expression ([3]; replicate 30): 1.517 | Surface SNAP-GIPR expression ([3]; replicate 31): 1.447 | Surface SNAP-GIPR expression ([3]; replicate 32): 1.457 | Surface SNAP-GIPR expression ([3]; replicate 33): 1.855 | Surface SNAP-GIPR expression ([3]; replicate 34): 1.376 | Surface SNAP-GIPR expression ([3]; replicate 35): 1.615 | Surface SNAP-GIPR expression ([3]; replicate 36): 1.418 | Surface SNAP-GIPR expression ([3]; replicate 37): 1.346 | Surface SNAP-GIPR expression ([3]; replicate 38): 1.685 | Surface SNAP-GIPR expression ([3]; replicate 39): 1.551 | Surface SNAP-GIPR expression ([3]; replicate 40): 1.483 | Surface SNAP-GIPR expression ([3]; replicate 41): 1.492 | +GIP internalisation (100 nM) ([4]; Fig 4G, GIP 100 nM): 0.6838 | GIP-specific internalisation (100 nM) ([4]; Fig 4G, GIP 100 nM): 0.1408 | Constitutive internalisation (100 nM) ([4]; Fig 4G): 0.543 | Internalisation, +GIP ([4]; Fig S4C, INS-1): 46.5117 | Internalisation, GIP-only ([4]; Fig S4C, INS-1): 9.467 | Internalisation, Vehicle ([4]; Fig S4C, INS-1): 37.045 | INS-1 cAMP (100 nM) [5]: 1.164 | AD293 100 pM cADDis ([6]; AD293, 100 pM): 19.5296 | AD293 100 nM cADDis ([6]; AD293, 100 nM): 38.38 | Surface expression [7]: 1.406
